This passage reports protein production results from a protein production outcome set (Wang et al. 2014).

This series in a line: label from the status in PepcDB records.
Consider “MKHLTVYFLLALQGVLFSFSLSAATPQNAIAYHDGNVRFSVLTDGVIRMEWSPSGSFTDDPSFVAIHRNLPVPKYTVQNKNATVVISTARMKLKYKKGQGPFTKDNLTITSAKGMFPFQWTPGTIQKGNLKGTDRTLDGFEGDHNIYSHQDMKLEDGLLSTDGWTLIDDSKNFLFDNSEWAWVKEREHKDGQDWYFMAYGHDYKAALKDFTVFAGKVPLPPRYAFGYWWSRYWSYSDKEMRQLVDNFHTYNIPLDVLVVDMDWHYTDPGFGGWTGWTWNRRLFPDPAKFLGYLKSNDLKITLNLHPADGVAPYEEKYPEMAQWMGVDTAKQERIPWVVSDKRFINGMFNKVLRPMEKQGVDFWWLDWQQWMYDKKVDSLSNTWWINYVFFSDMERNRDTRPMLYHRWGGLGNHRYQIGFSGDAVISWKSLEFQPYFTNCASNVLYGYWSHDIGGHMFKGGDKEILDPELFTRWMQYGALTPVMRTHSTKNSVLNKELWNFKGDYFEALRNSILFRYQLAPYIYTMARETYDNGISICRPMYYDYPEAKEAYDFKSEYMFGDQILVAPITTPMQNGLSTVKVWLPEGNDWFEWTTGTLLKGGQIIERSFTLTEYPVYVKAGSVLPLYNRVKNLNSNSEEIIVNIFPGENGSFTFYEDNGNDKYYANEYARTRMYTERKENHLTVTVGPRQGKYRNMPTDRQFKIKVLGSAIPETITINGNRAEYEYIGDELALLITIPQTACDQEKTIEIQYSTSIPELNDGIVSQFKRFSKAITALKYRDAGIVLTPTMGATEATSIALTYSPERFNELIETFKRNYSQMPEMLKEQKLNEANSQWFMKAIGWKK”, for which the protein production entry is on record as “failed”.

In the case of “MKHTIGILGGMGPAATADMLEKFVELRHASCDQQHIPLIVSSIPDIPDRTACLLSGGPSPYRYLERYLHMLEDAGAECIVIPCNTAHYWFDDLQNVAKARMISILDATLGDIPPSARHVGLLATNATLATGLYQKKALARGLTLIQPEDAGQALVMQAIYTLKRGDKTAAQALLLPQIDSLIARGAQAIIMGCTEIPLIVAGHERAIACPMIDSTASLVRAAIRWYESWPDTRASLTGEQRLTA”, the protein production entry is listed as “not failed”.

As for “MKHVDTEIPTEEQIHEAEKFGFHGQVQAAKIRFDRYFPGVLASITVAAAATFLSDHYGAPTMLFALLIGMAFRFLSEDESRALVGIQFASTTVLRIGVALLGMRITLGQIQSLGVKPVVMVFFSVLLTILFGLALSKMMGRGKRFGVLTGGSVGICGASAALAIAAVLPQDEYSERNTIFTVISITALSTLAMIAYPVVAQWFGLDHQAAGIFLGGTIHDVAQVVGAGYSVSEQTGDTATVIKLLRVSMLVPVVFILSLIFHKRNQKDGNAPRRTLLPPFIIFFVLFVGINSLGVVPKPATQFINDVSRWCLVTAIGALGMKTSLKSLFEVGWKPVSIMIAETVFLAVLVLGSVVWMS”, the protein production entry is given as “failed”. The result for “MKIAALYDIHGNYPALKEVLKQVKKLSPDLVVLGGDLIAGPMPLETLSLLKHVSTTFKTVGIMGNNDQDIVDIYAKKRVGLSRKATEQLTWIANQLSYKQVSFLRNLLPSISIGNYFFCHAVKNDNTTVFSPQQNKAYIETLFKGVQESYIICGHTHIQFELSLPNKKIINAGSIGMPFSNQFGAQWLWLDDNRIEYKRTIFNQQAAIQLISQTEYPFKNEFIANNLRSTISLSQGYSILNTLIRAQNAQHDLSLEHHHHHH” reads “not failed”. “MKIADGVYVHFIPTQKYKTNRIVFRMTGSLNKQTIAKRALVSQMLATANQTYPTVQSFKERLASLYGTQLSTKVSTKGLTHSVDIELTYLKDFFIPMNTSLFWEVLGFLMDCLYNPLSIVAQYQNKVFDIEKQNLMTYLDVDTENNYYYSEVQGRELYFVNEALKVPKYGRVELVEAETSFTAYQEFQSMLTKDRIDIFMVGEFDDYQVLRGLHRFPLEGRQVDLQFSYNQSYSKVVKEKIETRQTSQSILQLGYQFPCQYGDKDYFALIVFNGMLGEFAHSALFTKIREKEGLAYSIGSQFDAFTGLLEIYAGIEKSNRNQAMRGIIRELNHIKLGRFSSSLFNQTKKIIRMNALLSEDHALTLVEQHFNKVIFGDKKISLEDWLDKIEKVTKKDVCRIARQVKLQSLFFLEGVS”: the protein production entry was “failed”. The value for “MKIAVMGYGTIGSGVVEVLEINKEKIAKRAGEPIEVKYVLDLREFPGTPIENKIVHDYKVIAEDPEIGIVVETMGGVEPAFTFVKAMLEAGKQVATSNKNLVAAKGAELIKVARDHGVNFQFEASVGGGIPIIRPLNKCLTADEIEEITGILNGTTNYMLTKMTEEGADFDEVLKDAQDKGYAEKDPTADIEGYDPCRKIAILTSLVAGQQVDFEDIHCEGITKITPEDIKYAKAMHRAIKLLASSRKVGDSYTCLVAPYMIDDTHPLSGVNGVFNGVFLRGNVLGDAMFYGSGAGKLPTASAVVADVVDMTKHQNTNIYIDWKPEKLTLVSYDDSVNSFFVRTDSPKSEVEAVFGHVDYIEDVVDGEYAFTTGDMTEKDFADKASKINVINRIRL” was “failed”; that for “MKICHRYIAWQVLTGMVIATAILLPLFSFFDLLDQLDDVGKGTYTTWDAFLYTVMLMPRRFIQIAPFIALLGTVGALGALAVNLELVAMRVAGLSPLMIGLAPVGIGGLLIASTIALEYFVAPQFQQQATILRAVALEQGAELGKGLGIWTRNERNILRIGEMLHKGRATDIEVIHFDGEGSMTAHVHAWYADIFDESLWKLHDVTIRTFSPDRITSRKAHILQWHSFLGPDDIATLTKSPESLTPIELVKHAEFLRATGQKADAYVMALWRKVGGAIMTIAMILVAIPFIFGSVREGLGGKLILAALMGISIYLFDQIIANIGLVFQLNPIVVSVVPGMVLIAVAAHWLLRRTF” was “failed”; that for “MKIDGETRSARKDREIIQAATAAFISKGYDGTSMEEIATKAGASKQTVYKHFTDKETLFGEVVLSTASQVNDIIESVTTLLSEAIFMEGGLQQLARRLIAVLMDEELLKLRRLIIANADRMPQLGRAWYEKGFERMLASTASCFQKLTNRGLIQTGDPYLAASHLFGMLLWIPMNEAMFTGSNRRSKAELERHADASVEAFLAVYGVQPK” was “not failed”.

With “MKIEKQVNDLRIIELEKELENNPFIPILYWELGLNYLISVGEEKAEEIWSLGLLQCFTSFDEGLLSLVGFIEQHIELNKNDKQTVLILWQQIIKIVPNYLAGHLNLLVVACELKVFSAEKLAYLGTVALINSIDSGCISQQEEELLLRATLSILEFPTALSLDFLRSSIPLLVNLPWCDAVMAFANSMVYDKQLFSYGVEIAEICLQYSPNNLFILNDLIRFYGLRKDQDALLRTARNLLNIFRQQDFEPDFGFYLSSRLLSAFMTGNDWEQVQSIASIFKDYFILLQNEKSVVLNNFLRDRFWGLGFSLLYLFDEPESNRRCLNFNASIFQQNLTENQNKTICQEENLPKKKQVSLKRIGYIAHTLRQHSVGWLCRWLFKYHDREKFEIFVYLIGQPEDELTENWIYPNVSKYYHFGRDKNEIIKQIKQDQIQILVDLDVLTHNITAQVLAHKPAPVQVSWLGSDASGLPAIDYFIVDPYVVPDDAEGYYREKLWRLPQTYLAVDGFEMGTPTLSREQLGIKPNTVIYLSVQNKIKSNPNILKLQLQILQSVPDSVFLIKGGGDNELIRAMVEQLAKEMGLDLHRIRFLPKDGDEMTHRANLSIADVVLDTYPYNGATTTLETLWMEVPLVTRVGKQFASRNSYTFLTQLNIREGLAWNDQEYVYWGTRFGLEKSLREKVKNELNLGKYKSKLWRAKDFTQELELAYEGMWNGDLD”, the protein production entry is “failed”. The result for “MKIFGTDGVRGKAGVKLTPMFVMRLGIAAGLYFKKHSQTNKILIGKDTRKSGYMVENALVSALTSIGYNVIQIGPMPTPAIAFLTEDMRCDAGIMISASHNPFEDNGIKFFNSYGYKLKEEEEKAIEEIFHDEELLHSSYKVGESVGSAKRIDDVIGRYIAHLKHSFPKHLNLQSLRIVLDTANGAAYKVAPVVFSELGADVLVINDEPNGCNINDQCGALHPNQLSQEVKKYRADLGFAFDGDADRLVVVDNLGNIVHGDKLLGVLGVYQKSKNALSSQAVVATNMSNLALKEYLKSQDLELKHCAIGDKFVSECMQLNKANFGGEQSGHIIFSDYAKTGDGLVCALQVSALVLESKQVSSVALNPFELYPQSLVNLNVQKKPPLESLKGYSALLKELDKLEIRHLIRYSGTENKLRILLEAKDEKLLESKMQELKEFFEGHLC” reads “failed”. The result for “MKIFRNPPLVMSGLTLGLFALGNLLKLYHPSLRHLLSIIALLLYLFLILSILKNLSQALEQIKHPLIASIFPTFFMSGMLLAGYIQTFPFLEDWVTLISLTIWWLAFLGNAGLIAYFTIKFVIPFHWEHVFPSWSVLYVGIAVATLTAPISGQYILGQIIFWTCLLLTLLILPLMTIKAYCIGLPETAKPNICTFCAPLSLLLAGYLKTFPPEQSPNTNFVWLLLLASQLLYFFVVLQLPVLLKREFNPGFSAFTFPFAISATALRSAGSYLHLQLPLFQLLVKLEELLASILVLFILYSYLRFLSKQEDLPSN” reads “failed”; that for “MKIFRSIDEIREPLPSPVVTIGNFDGVHLGHREIFRRVKREAARLDGVSMVITFTPHPLKVLGLRKELRLINTYAEKELLIEASGIDCLLTIPFTAEFAAIGAERFVGEILVGRIGVKKLVIGYDYAFGRNREGDVAMLRRMGEEHGFEVEVLEQIASGETVYSSSAVRRMIAAGNVREVVSLIGRHYSVGGTVVHGRRRGKDLGFPTANLRTEKELIPAAGVYAVKVRVDDTIRDGACNIGNNPTFGNEEVTVEVHILDFDGDLYGKEIRVYFVDRVREELRYPDLNALKEGISRDVARCRELLAGVSIIEYRDYLGGDAA”, “failed”; that for “MKIGIIGAGNIGGTLARKFVAAGHSVKLAGSKSPDSIRELAENIGAEPVAAVEAVKDVEVIVLSIPFAKIPEVAGLFSTVPAEVVVIDTSNYYPQLGTRIPEVDDGELESVWAREQLGRPIIKAFNAIIAKTLADGGKPAGTDNRIAIPVAGDSLAGKAIAQQLLDDAGFDALDAGTIADSWRQQPGMPAYCTELPLAALHSALNVAVKGDAPHLRDALMAEFFGGDIPPSHETIVARNRAVSA”, “failed”. The result for “MKIGRYEVCGLLGRGGMGVVYKVRQPVTGRVAALKLLKPADILVDLAGMDALREGFLHEATVMASLDHPHVAAVWDVDEAGGLPFFVMEYYCLNLGLLMGESYRVEAPTRRLPLERAVRYARQTLEALRRMHHEGIVHRDVKPFNIMVTGDDAVKLIDFGLSRLRGETRLSPRGVKVGSPYYAPPEQESAPDAVDARADLYPVGVMLFRMLTGVLPTDEERMKDGRIPRASALSDELDEGWDAFFDTAMAADPARRFPDAASMLAALARCEAAWRKQVEATCRLIPEQAAGPGDASDMRHDAGHESVQAGQTDETGQAGQAGQAGQAVTCEGAPAASGGVRCRPVKVGVHEARATFALDALWRPASAARQGLEARDDGTVSHAATGLQWETGGCDFPLTRDEAEAYVEARNALRFAGHDDWRLPTVDELLTLVDAGVTVGDPCVASVFAPLPDPLWTSDRKSYMASWFVSAAMGFVGWQDDTCRFGVRLVRGGSARCRE” reads “failed”; that for “MKIGVYGASGRIGKLLLEELKGGYKGLALSSVFVRQKCETDFSSFSHAPLVTNDLKAFVRACECVIDFSLPKGVDNLLEALLECPKILVSGTTGLEKETLEKMQQLALKAPLLHAHNMSIGIMMLNQLAFLTSLKLKDADIEIIETHHNLKKDIPSGTALSLYETCAKARGYDEKNALITHREGLRSKESIGIAALRGGDVAGKHTIGFYLEGEYIELSHTATNRSIFAKGALEVALWLKDKAAKKYEINEMFG”, “failed”; that for “MKIIDKLYEKVSKNGFVCIGLDSSIDYIPENMKAGKSVSEALFSYNKEIIDQTYDVCAIYKLQIAYYESYGIEGMIAYRDTLSYLREKDLLSIGDVKRSDIAASAKMYAKAHFEGDFETDFITLNPYMGMDSIEPYEEYIEKGDKGVFVLLRTSNPGAKDFEVLPVDGEEFFYKVGDKMRELNEKYIGKSGFGPIGLVVGATHSEEVEKIRKRYDKMFFLIPGFGAQKADSMNVYKLLEGLNGGVVNSSRAILKNWQNYEDGSEKVGYYARKKAIETYEEIKANEVL”, “not failed”.
